Laboratory results published in patent US20200332306.

What was measured:
[1] = molecular target: Sth7710 Type I-E Cascade plus Cas3 nickase (Streptococcus thermophilus DGCC7710) (UniProt F2XG53); assay: cell_activity
[2] = system: Sth7710 Type I-E Cascade, Cas5, Cas6 and Cse1 each AtCBF1-linked (Streptococcus thermophilus DGCC7710); assay: cell_activity; details: PAM AA 5'; value for R1 guides pooled (A2+, A4+, A1-); SE 18.9; no-guide control 0

## GUGAUCCNNNNNNNNNNNNNNNNNNNNNNNNNNNNNNNNNGUUUUUCCCGCACACGCGGGGGAGGGUCUACUUCCAUCACCGUCUUGCUCGGUC / GAGGGTCTACTTCCATCACCGTCTTGCTCGGTC / GACCGAGCAAGACGGTGATGGAAGTAGACCCTC [R1 A2+ guide RNA ; R1 A2+ protospacer]
[1]; paired nicking A2+/A3-, A2+/A1- pair gave 0.02%, PAM AA 5'
  activity (% mutant reads): 0.06
[2]
  activity (anthocyanin positive cells): 153

## GUGAUCCNNNNNNNNNNNNNNNNNNNNNNNNNNNNNNNNNGUUUUUCCCGCACACGCGGGGCACUACUGCUGUUCAUGUACAGUUUAAGCACUA / CACTACTGCTGTTCATGTACAGTTTAAGCACTA / TAGTGCTTAAACTGTACATGAACAGCAGTAGTG [R1 A3- guide RNA ; R1 A3- protospacer]
[1]; paired nicking A4+/A3-, PAM not printed for A3-
  activity (% mutant reads): 0.03

## GUGAUCCNNNNNNNNNNNNNNNNNNNNNNNNNNNNNNNNNGUUUUUCCCGCACACGCGGGGCAGCAGUAGUGUUACAGAAGCUAAACUCAACCA / CAGCAGTAGTGTTACAGAAGCTAAACTCAACCA / TGGTTGAGTTTAGCTTCTGTAACACTACTGCTG [R1 A4+ guide RNA ; R1 A4+ protospacer]
[1]; paired nicking A4+/A1-, PAM AA 5'
  activity (% mutant reads): 0.06
[2]
  activity (anthocyanin positive cells): 153

## GUGAUCCNNNNNNNNNNNNNNNNNNNNNNNNNNNNNNNNNGUUUUUCCCGCACACGCGGGGUUUAUGGACAGAGCUCCAAGUGACCGAGCAAGA / TTTATGGACAGAGCTCCAAGTGACCGAGCAAGA / TCTTGCTCGGTCACTTGGAGCTCTGTCCATAAA [R1 A1- guide RNA ; R1 A1- protospacer]
[2]
  activity (anthocyanin positive cells): 153
